The values below come from patent US20250188130A1.

In the assay the target is E glycoprotein of DENV2-FL-Mature (fusion loop N103S and G106L), on virus (Dengue virus serotype 2, strain S16803 (engineered)) (UniProt P18356). The experiment in a line: cell-based or functional assay.

1M7 (antibody): the neutralization (FRNT, EC50) (logs (reduction against DENV2)) came out at 2.
